Key:
[1] = Whole animal surface fluorescence after IV injection (elimination); assay type: in vivo, mouse; conditions: bladder at 20 minutes, vs (DOTA)Lys-Cys(IR-783) peptide
Text: (§1) A Kodak FX multispectral imaging system was used (Carestream Molecular Imaging, Rochester, N.Y.). Excitation at multiple wavelengths (620, 650, 690, 710, 720, 730, 750 and 760 nm) with the emission at 830 nm was setup for IR-783 spectrum; Excitation at multiple wavelengths (420, 440, 460, 480, 510, 520, 530, and 540 nm) with the emission at 600 nm was setup for Cy3 spectrum; Excitation at multiple wavelengths (450, 470, 510, 520, 530, 540, 550, 570, and 590 nm) with the emission at 700 nm was setup for mCherry; with manufacturer's software to separate (unmix) the IR-783 spectrum, Cy3 spectrum, or mCherry spectrum from skin autofluorescence and chlorophyll fluorescence from food. X-ray images were taken after fluorescence images. Animals were anesthetized with 2% isoflurane with O2 flow (2 I/min) during imaging.

[2] = Quantum yield determination; assay type: physicochemical; conditions: for Quant. Yield: Table 5, in PBS
In short: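 Relative quantum yields in PBS, probe absorbance adjusted below 0.1, references IR-783 (0.043), fluorescein (0.18), Cy3 (0.31). Excitation/emission ranges: PN(783) 730 nm/765–870 nm; PN(545) 515 nm/538–700 nm; PN(497) 450 nm/475–620 nm, maximum emission used. Triplicate, mean±SD.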

[3] = Blood half-life from serum fluorescence after tail injection; assay type: in vivo; conditions: mouse, IV; single decay constant fit
Method: Using these procedures and PEG's of different molecular weights, PEG-like NIR fluorochromes of different molecular weights, volumes and pharmacokinetics were synthesized, with results summarized in Table 3B. Blood half-lives were determined by tail injection into mice and measuring serum fluorescence as a function of time. Data (fluorescence versus time) were fit to a single decay constant equation to yield blood half-lives. Human pharmacokinetics will be far slower than that of mice.

HT-29 tumor = assay type: in vivo, mouse
Text: as §1
Female nude mice (25-30 g; 6-8 weeks old; nu/nu) were anesthetized with 2% isoflurane/O2. HT-29 or mCherry-HT-29 cells were detached, pelleted and 200 μl of cell suspension containing 10^6 cells in Matrigel (BD Bioscience) was injected subcutaneously into right and left shoulders. Tumors were allowed to grow 5-7 days before experiments.
The imaging was performed by Triumph II multimodality imaging system (Gamma Medica Ideas, LLC) comprising XSPECT with four CZT (Cadmium Zink Telluride) detectors and X-O CT with CMOS detector. SPECT data of the ^111In-labeled compound was acquired for 60 minutes using 5-pinhole collimators and processed with 3D-OSEM algorithm using 4 subsets and 5 iterations. 3-dimensional CT data was processed with modified Feldkamp software. […] Animals were under isoflurane anesthesia (1.5%) with O2 flow (1.5 l/min) and kept warm during the imaging with a heated animal bed.
150 μl of ^111In-labeled PN(783)10 (400 μCi, ˜2 nmole) were injected to tumor-bearing animals by tail vein (IV). 24 hours or 48 hours later, animals were sacrificed, and tumors, blood, liver, spleen, stomach, kidneys, small intestine, lung, heart, tail, fat, and muscle, were collected. Radioactivity was measured with Perkin Elmer, Wizard2 2480 gamma counter.

[4] = mouse, in vivo
Method: At two hours post injection, agent is in the blood and interstitium. By 24 hours post injection, tumors are becoming apparent as agent is being cleared. At 48 hours, labeling is highly tumor selective. […] By surface fluorescence, as with SPECT, labeling is highly tumor selective at 48 hours. Biodistribution as organ radioactivity concentrations FIG. 26(c) and total organ radioactivity FIG. 26(d) were obtained by dissection and ^111In counting at 24 hours and 48 hours post injection. Even at 48 hours post injection some 7.5% of injected dose is in the blood, with less than 5% in liver, even though the diameter of PN(783)10.0 exceeds that of albumin (6.7 nm). Data are means and standard deviations. […] By 72 hours, some 17% of injected dose was retained, approximately half of which was still in the blood based on FIG. 26d.

Row | Substance | fluorochrome elimination after IV injection [1] | Quantum Yield ([2]; Table 3B, IR-783 dipeptides) | Quant. Yield [2] | Serum half-life [3] [min] | tumor retention (EPR) by SPECT and surface fluorescence (HT-29 tumor; HT29 tumor, 48 hours) | injected dose in the blood (HT-29 tumor; mouse, in vivo) [%] | injected dose in the liver (HT-29 tumor; mouse, in vivo) | injected dose retained (whole animal) [4] [%]
1 | (DOTA)Lys(PEG5K)-Cys(IR-783) [PN(783)4.3] | enhanced fluorochrome elimination | 0.17 | 0.16 | 13.1 |  |  |  | 
2 | (DOTA)Lys(PEG30K)-Cys(IR-783) [PN(783)10.0] |  |  | 0.16 |  | retained in the tumor | ~7.5 | less than 5% | ~17

— patent US20150258217A1, “Methods of Synthesizing and Using Peg-Like Fluorochromes” (THE GENERAL HOSPITAL CORPORATION, priority 2012, published 2015)
